# Results as given in PMC11711097 (Nature, 2024).
# Changes are numbered by the printed parent chain. In names and notes the source's numbering stands.
# B1: Nb538 (His-tagged, purified) (VHH)
# VHH: EVQLVESGGGLVQPGGSLRLSCAASGFNVYSSSYYYVGWVRRAPGKGEELVARISPSYGYTYYADSVKGRFTISADTSKNTAYLQMNSLRAEDTAVYYCEVYIFGQYFESGQGTLVTVSS
# B2: Endogenous NINJ1 of mouse bone marrow-derived macrophages (natural protein)
# chain: MESGTEEYELNGDLRPGSPGSPDALPPRWGLRNRPINVNHYANKKSAAESMLDIALLMANASQLKAVVEQGNDFAFFVPLVVLISISLVLQIGVGVLLIFLVKYDLNNPAKHAKLDFLNNLATGLVFIIVVVNIFITAFGVQKPVMDVAPRQ
# B3: Full-length mouse NINJ1(K45Q) (natural protein)
# chain: B2 chain with K45Q
# How the values were obtained:
# [1] = target: Full-length mouse NINJ1(K45Q) (mouse, UniProt O70131, K45Q); assay: SPR
# [2] = target: the molecule itself; assay: cross-linking
# [3] = target: the molecule itself; assay: cryo-EM structure
binder,measurement,setting,value
B1,Kd,[1],24 nM
B2,stoichiometry N,[2],2 subunits
B3,stoichiometry N,[3],4 subunits
